Measurements: patent US20220289816A1, “IMMUNOTHERAPY WITH B*07 RESTRICTED PEPTIDES AND COMBINATION OF PEPTIDES AGAINST CANCERS AND RELATED METHODS” (Immatics Biotechnologies GmbH, priority 2018, published 2022)

What follows are substances tested against HLA-B*07 (Homo sapiens, UniProt P01889) (assay: MHC binding assay (UV-ligand exchange, ELISA of stabilized MHC complexes)). Conditions: peptide exchange yield on HLA-B*07, UV-ligand exchange.
Source text: Candidate peptides for T cell based therapies according to the present invention were further tested for their MHC binding capacity (affinity). The individual peptide-MHC complexes were produced by UV-ligand exchange, where a UV-sensitive peptide is cleaved upon UV-irradiation and exchanged with the peptide of interest as analyzed. Only peptide candidates that can effectively bind and stabilize the peptide-receptive MHC molecules prevent dissociation of the MHC complexes. To determine the yield of the exchange reaction, an ELISA was performed based on the detection of the light chain (β2m) of stabilized MHC complexes. The assay was performed as generally described in Rodenko et al. (Rodenko et al., 2006)
96 well MAXISorp plates (NUNC) were coated over night with 2 ug/ml streptavidin in PBS at room temperature, washed 4× and blocked for 1 h at 37° C. in 2% BSA containing blocking buffer. […] Peptide-MHC monomers of the UV-exchange reaction were diluted 100-fold in blocking buffer. Samples were incubated for 1 h at 37° C., washed four times, incubated with 2 ug/ml HRP conjugated anti-[…] for 1 h at 37° C., washed again and detected with TMB solution that is stopped with […]. Absorption was measured at 450 nm. Candidate peptides that show a high exchange yield (preferably higher than 50%, most preferred higher than 75%) are generally preferred for a generation and production of antibodies or fragments thereof, and/or T cell receptors or fragments thereof, as they show sufficient avidity to the MHC molecules and prevent dissociation of the MHC complexes.
“86 (ALLLRGVTL; listed as Homo sapiens) [compound 86]” was tested, and the Peptide exchange was “++ (>20% = ++)”. With “374 (KPRNMTGLDL; listed as Homo sapiens) [compound 374]” the Peptide exchange was “++++ (>75% = ++++)”. In the case of “311 (APRLALDPDAL; listed as Homo sapiens) [compound 311]”, the Peptide exchange is reported as “++++ (>75% = ++++)”. In the case of “117 (IPHQRSSL; listed as Homo sapiens) [compound 117]”, the Peptide exchange is reported as “++++ (>75% = ++++)”. With “195 (NPIFGRKEL; listed as Homo sapiens) [compound 195]” the Peptide exchange was “+++ (>50 = +++)”. For “492 (IPFSVDEI; listed as Homo sapiens) [compound 492]”, the Peptide exchange was “+ (>10% = +)”. In the case of “102 (MAGPAIHTAPM; listed as Homo sapiens) [compound 102]”, the Peptide exchange is reported as “++ (>20% = ++)”. In the case of “491 (MPEADLKRIF; listed as Homo sapiens) [compound 491]”, the Peptide exchange is reported as “++ (>20% = ++)”. In the case of “449 (RPKTSVNLISSL; listed as Homo sapiens) [compound 449]”, the Peptide exchange is reported as “++++ (>75% = ++++)”. For “290 (RPTHPLRSF; listed as Homo sapiens) [compound 290]”, the Peptide exchange was “++++ (>75% = ++++)”. In the case of “265 (FPRKPYEGRV; listed as Homo sapiens) [compound 265]”, the Peptide exchange is reported as “+++ (>50 = +++)”. For “94 (LPMSKRQEY; listed as Homo sapiens) [compound 94]”, the Peptide exchange was “+++ (>50 = +++)”. For “296 (SPLLMQRTL; listed as Homo sapiens) [compound 296]”, the Peptide exchange was “++++ (>75% = ++++)”. “164 (RAAGRRLQL; listed as Homo sapiens) [compound 164]” was tested, and the Peptide exchange was “++++ (>75% = ++++)”. With “479 (APHAGGALL; listed as Homo sapiens) [compound 479]” the Peptide exchange was “++++ (>75% = ++++)”. For “357 (LPPHIFAI; listed as Homo sapiens) [compound 357]”, the Peptide exchange was “++ (>20% = ++)”. For “72 (APCNGNVAV; listed as Homo sapiens) [compound 72]”, the Peptide exchange was “+++ (>50 = +++)”. For “28 (LPAPTSLVL; listed as Homo sapiens) [compound 28]”, the Peptide exchange was “++++ (>75% = ++++)”. In the case of “101 (KPGLPGLK; listed as Homo sapiens) [compound 101]”, the Peptide exchange is reported as “+ (>10% = +)”. In the case of “289 (LPYEKVSRL; listed as Homo sapiens) [compound 289]”, the Peptide exchange is reported as “+++ (>50 = +++)”. With “168 (SPSGQRDVSL; listed as Homo sapiens) [compound 168]” the Peptide exchange was “++++ (>75% = ++++)”. For “129 (MTLPATTLTL; listed as Homo sapiens) [compound 129]”, the Peptide exchange was “++ (>20% = ++)”. “312 (SPSLQSSRESL; listed as Homo sapiens) [compound 312]” was tested, and the Peptide exchange was “+++ (>50 = +++)”. “383 (KPRATWTLKL; listed as Homo sapiens) [compound 383]” was tested, and the Peptide exchange was “+++ (>50 = +++)”. “271 (SPTPVFTTL; listed as Homo sapiens) [compound 271]” was tested, and the Peptide exchange was “+++ (>50 = +++)”. With “459 (SPAPWRPWI; listed as Homo sapiens) [compound 459]” the Peptide exchange was “++++ (>75% = ++++)”. For “25 (RPQGAVGGL; listed as Homo sapiens) [compound 25]”, the Peptide exchange was “+++ (>50 = +++)”. With “71 (APFAPLHGGGSL; listed as Homo sapiens) [compound 71]” the Peptide exchange was “+++ (>50 = +++)”. With “280 (LPRAFLQSL; listed as Homo sapiens) [compound 280]” the Peptide exchange was “++++ (>75% = ++++)”. “478 (APKFISPASQL; listed as Homo sapiens) [compound 478]” was tested, and the Peptide exchange was “++++ (>75% = ++++)”. In the case of “454 (SPDPAHLESL; listed as Homo sapiens) [compound 454]”, the Peptide exchange is reported as “++++ (>75% = ++++)”. “476 (EPNPVEEIF; listed as Homo sapiens) [compound 476]” was tested, and the Peptide exchange was “++ (>20% = ++)”. In the case of “382 (RPGPQRTTSV; listed as Homo sapiens) [compound 382]”, the Peptide exchange is reported as “++++ (>75% = ++++)”.
